Test results from article PMC8804921.

B1: pHSP70.3 EMSA BRRE (C1 +BRRE) (dsDNA)
DNA 1: ATCCAACTCCAAAAGATCGTGCGGTTACATAGCGAGCCAT
DNA 2: ATGGCTCGCTATGTAACCGCACGATCTTTTGGAGTTGGAT
B2: pHSP70.3 EMSA HSE (C1 +HSE) (dsDNA)
DNA 1: TTACATAGCGAGCCATCGAACCTTCTCGAAACTCGAGTACAAGACTC
DNA 2: GAGTCTTGTACTCGAGTTTCGAGAAGGTTCGATGGCTCGCTATGTAA
B3: pHSP70.3 EMSA HSEmut (C2 -HSE) (dsDNA)
DNA 1: TTACATAGCGAGCCATCTAACCTTATCTAAACTCGAGTACAAGACTC
DNA 2: GAGTCTTGTACTCGAGTTTAGATAAGGTTAGATGGCTCGCTATGTAA
B4: pHSP90.1 EMSA HSE (C1 +HSE) (dsDNA)
DNA 1: GAGTCTCGAAACGAAAAGAACTTTCTGGAATTCGTTTGCTCACAAAG
DNA 2: CTTTGTGAGCAAACGAATTCCAGAAAGTTCTTTTCGTTTCGAGACTC
B5: pHSP90.1 EMSA BRRE (C1 +BRRE) (dsDNA)
DNA 1: TCCATCAGCTACAAAGTCGTGTGCGATTTTGAGTCGTTGT
DNA 2: ACAACGACTCAAAATCGCACACGACTTTGTAGCTGATGGA

Tests used:
[1] = molecular target: BES1 (BES1-GST / GST-BES1) (UniProt Q9LN63 1-335); assay: EMSA
Chain of BES1 (BES1-GST / GST-BES1) (Q9LN63 whole entry): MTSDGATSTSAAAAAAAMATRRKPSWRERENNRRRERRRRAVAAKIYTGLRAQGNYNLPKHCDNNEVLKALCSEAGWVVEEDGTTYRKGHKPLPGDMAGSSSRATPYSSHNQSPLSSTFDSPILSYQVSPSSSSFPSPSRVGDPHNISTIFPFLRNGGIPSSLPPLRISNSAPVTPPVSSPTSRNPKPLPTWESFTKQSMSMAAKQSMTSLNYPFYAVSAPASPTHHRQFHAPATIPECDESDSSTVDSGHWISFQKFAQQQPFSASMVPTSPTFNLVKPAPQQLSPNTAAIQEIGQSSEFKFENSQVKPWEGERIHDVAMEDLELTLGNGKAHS

[2] = molecular target: T1, BES1 (BES1-GST / GST-BES1);HSFA1a-MBP (Arabidopsis thaliana?;Arabidopsis …, UniProt Q9LN63;P41151 1-335;1-495, |); assay: EMSA
T1 sequence (Q9LN63 whole entry, chain 1 of 2): as the sequence (Q9LN63 whole entry) above
T1 sequence (P41151 whole entry, chain 2 of 2): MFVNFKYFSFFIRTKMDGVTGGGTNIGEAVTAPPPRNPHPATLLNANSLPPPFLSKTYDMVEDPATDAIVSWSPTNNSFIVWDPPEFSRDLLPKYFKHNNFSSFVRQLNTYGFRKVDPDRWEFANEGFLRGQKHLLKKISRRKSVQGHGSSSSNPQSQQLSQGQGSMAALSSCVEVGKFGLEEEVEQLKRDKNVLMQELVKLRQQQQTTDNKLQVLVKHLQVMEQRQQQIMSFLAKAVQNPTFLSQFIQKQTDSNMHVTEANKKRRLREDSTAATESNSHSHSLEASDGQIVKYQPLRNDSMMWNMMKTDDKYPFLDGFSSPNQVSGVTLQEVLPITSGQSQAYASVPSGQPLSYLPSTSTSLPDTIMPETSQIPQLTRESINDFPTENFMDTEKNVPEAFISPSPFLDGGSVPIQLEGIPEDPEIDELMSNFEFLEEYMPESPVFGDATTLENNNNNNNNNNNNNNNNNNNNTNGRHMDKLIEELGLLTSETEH

[3] = molecular target: HSFA1a-MBP (UniProt P41151 1-495); assay: EMSA
Chain of HSFA1a-MBP (P41151 whole entry): as the sequence (P41151 whole entry, chain 2 of 2) above

[4] = molecular target: T1, BES1 (BES1-GST / GST-BES1);HSFA1a-MBP; assay: competition

Binder	binding result [1]	binding result [2]	binding result [3]	binding result [4]
B1	binds	–	–	–
B2	–	binds	binds	–
B3	–	–	–	no binding
B4	–	binds	binds	–
B5	binds	–	–	–
